According to EP4640709A1 (CHIOME BIOSCIENCE INC., dated 2025):
Read-outs that look alike come from different tables or passages of the source.

Assays:
[1] = target: T1, human CX3CR1 (human, UniProt P49238 1-355); test: cell-based or functional assay
T1 sequence: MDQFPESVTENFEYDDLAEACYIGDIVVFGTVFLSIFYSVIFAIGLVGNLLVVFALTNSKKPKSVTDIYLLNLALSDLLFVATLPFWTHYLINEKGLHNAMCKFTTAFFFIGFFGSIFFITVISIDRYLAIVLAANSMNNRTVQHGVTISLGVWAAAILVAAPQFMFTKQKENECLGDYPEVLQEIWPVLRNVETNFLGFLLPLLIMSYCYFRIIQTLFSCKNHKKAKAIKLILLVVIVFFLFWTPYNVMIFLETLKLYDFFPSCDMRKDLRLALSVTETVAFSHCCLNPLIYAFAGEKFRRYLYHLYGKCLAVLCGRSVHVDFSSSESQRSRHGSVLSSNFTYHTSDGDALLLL

[2] = target: T1, human CX3CR1; test: binding to hCX3CR1-expressing Eurofins cells
[3] = target: T2, rat CX3CR1 (rat, UniProt P35411 1-354); test: flow cytometry, CX3CR1-expressing Ba/F3 cells
T2 construct: whole, on cells; Expressed on Ba/F3 cells; also called rCX3CR1
T2 sequence (looked up): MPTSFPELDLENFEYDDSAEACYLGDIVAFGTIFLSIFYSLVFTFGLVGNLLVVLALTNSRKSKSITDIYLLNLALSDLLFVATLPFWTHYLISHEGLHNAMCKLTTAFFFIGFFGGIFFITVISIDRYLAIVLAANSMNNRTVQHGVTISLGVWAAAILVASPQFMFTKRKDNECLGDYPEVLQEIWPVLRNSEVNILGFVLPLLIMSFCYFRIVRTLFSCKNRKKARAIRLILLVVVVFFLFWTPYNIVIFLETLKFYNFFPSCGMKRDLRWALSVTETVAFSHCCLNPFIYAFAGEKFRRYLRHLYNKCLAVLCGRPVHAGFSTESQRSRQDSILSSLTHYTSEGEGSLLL

[4] = target: T3, mouse CX3CR1 (mouse, UniProt Q9Z0D9 1-354); test: flow cytometry, CX3CR1-expressing Ba/F3 cells
T3 construct: whole, on cells; Expressed on Ba/F3 cells; also called mCX3CR1
T3 sequence (looked up): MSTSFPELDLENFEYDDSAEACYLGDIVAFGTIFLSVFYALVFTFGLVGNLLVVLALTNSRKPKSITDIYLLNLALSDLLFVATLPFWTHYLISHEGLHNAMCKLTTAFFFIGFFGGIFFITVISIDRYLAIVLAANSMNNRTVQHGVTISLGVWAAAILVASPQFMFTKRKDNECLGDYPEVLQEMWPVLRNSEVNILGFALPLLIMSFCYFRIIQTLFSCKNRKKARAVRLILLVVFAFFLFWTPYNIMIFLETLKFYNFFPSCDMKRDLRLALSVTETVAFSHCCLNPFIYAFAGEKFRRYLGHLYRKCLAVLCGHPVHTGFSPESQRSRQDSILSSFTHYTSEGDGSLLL

[5] = target: T1, human CX3CR1; test: flow cytometry, binding to hCX3CR1-expressing Ba/F3 cells
[6] = target: T4, mCX3CR1-3 (chimeric CX3CR1); test: flow cytometry, chimeric CX3CR1-expressing Ba/F3 cells
T4 construct: Whole, on Ba/F3 cells

[7] = target: T5, mCX3CR1-2 (chimeric CX3CR1); test: as above
T5 construct: Whole, on Ba/F3 cells

[8] = target: T6, mCX3CR1-4 (chimeric CX3CR1); test: as above
T6 construct: Whole, on Ba/F3 cells

[9] = target: T3, mouse CX3CR1; test: as above
[10] = target: T1, human CX3CR1; test: cell-based or functional assay; remark: listed apart in the source
[11] = target: T7, mCX3CR1-1 (chimeric CX3CR1); test: flow cytometry, chimeric CX3CR1-expressing Ba/F3 cells, 200 nM, grade vs positive antibody (+++ >70%, ++ 40-70%, + 10-40%, - <10%)
T7 construct: Whole, on Ba/F3 cells

[12] = target: T8, hCX3CR1-3 (chimeric CX3CR1); test: as above
T8 construct: Whole, on Ba/F3 cells

[13] = target: T9, hCX3CR1-1 (chimeric CX3CR1); test: as above
T9 construct: Whole, on Ba/F3 cells

[14] = target: T1, human CX3CR1; test: as above
[15] = target: T10, hCX3CR1-4 (chimeric CX3CR1); test: as above
T10 construct: Whole, on Ba/F3 cells

[16] = target: T11, hCX3CR1-2 (chimeric CX3CR1); test: as above
T11 construct: Whole, on Ba/F3 cells

[17] = target: T6, mCX3CR1-4 (chimeric CX3CR1); test: as above
[18] = target: T1, human CX3CR1; test: cell-based or functional assay; remark: listed apart in the source
[19] = target: T1, human CX3CR1; test: flow cytometry, EC50 on hCX3CR1-expressing Ba/F3 cells, against m1F8
[20] = target: T2, rat CX3CR1; test: flow cytometry, CX3CR1-expressing Ba/F3 cells, relative to Synagis
[21] = target: T3, mouse CX3CR1; test: as above

B1: h1F8-2-1 (antibody, V domains shown)
VH: QVQLVQSGAEVKKPGSSVKVSCKASGFTFTNYWMQWIRQAPGQGLEWIGAIYPGSGESRYTRKFKGRATITADKSTSTAYMELSSLRSEDTAVYYCARWAGYSRNAAYWGQGTLVTVSS
VL: DIVMTQTPLSLPVTPGEPASISCRSRQSIVHSSGNTYLEWYLQKPGQSPQLLIYKVSNRFSGVPDRFSGSGSGTDFTLKISRVEAEDVGVYYCFQGSHIPPTFGGGTKVEIK
notes: Humanized antibody; also called humanized 1F8 antibody h1F8-2-1
- Cell migration inhibitory activity (IC50, nM) [1]: 2.02 nM
- EC50 [2]: 4.42 nM

B2: m1F8-1 antibody (antibody, V domains shown)
VH: QVQLQQSGAELARPGASVKLSCKASGFTFTNYWMQWIKQRPGQGLEWIGAIYPGSGESRYTRKFKGKATLTADKSSSTAYMQLNSLASEDSAVYYCARWAGYSRNAAYWGQGTLVTVSA
VL: DVLMTQTPLSLPVSLGDQASISCRSSQSIVHSSGNTYLEWYLQKPGQSPKLLIYKVSNRFSGVPDRFSGSGSGTDFTLKISRVEAEDLGVYYCFQGSHIPPTFGGGTKLEIK
notes: also called activity-enhanced m1F8 antibody
- binding result [3]: no binding (tested: <10% of positive antibody at 200 nM)
- binding result [4]: no binding (tested: <10% of positive antibody at 200 nM)
- EC50 [5]: 6.69 nM
- relative measured value (flow cytometry reactivity, MFI) compared to positive antibody at 200 nM [6]: < 10%
- relative measured value (flow cytometry reactivity, MFI) compared to positive antibody at 200 nM [7]: < 10%
- relative measured value (flow cytometry reactivity, MFI) compared to positive antibody at 200 nM [8]: < 10%
- relative measured value (flow cytometry reactivity, MFI) compared to positive antibody at 200 nM [9]: < 10%
- Cell migration inhibitory activity (IC50, nM) [10]: 5.32 nM
- relative measured value (flow cytometry reactivity, MFI) compared to positive antibody at 200 nM [11]: > 70%
- relative measured value (flow cytometry reactivity, MFI) compared to positive antibody at 200 nM [12]: > 70%
- relative measured value (flow cytometry reactivity, MFI) compared to positive antibody at 200 nM [13]: 40 to 70%
- relative measured value (flow cytometry reactivity, MFI) compared to positive antibody at 200 nM [14]: > 70%
- relative measured value (flow cytometry reactivity, MFI) compared to positive antibody at 200 nM [15]: > 70%
- relative measured value (flow cytometry reactivity, MFI) compared to positive antibody at 200 nM [16]: > 70%

B3: h1F8-2-4 (antibody, V domains shown)
VH: QVQLVQSGAEVKKPGSSVKVSCKASGFTFTNYWMQWIRQAPGQGLEWIGAIYPGSGESRYTRKFKGRVTITADKSTSTAYMELSSLRSEDTAVYYCARWAGYSRNAAYWGQGTLVTVSS
VL: DIVMTQTPLSLPVTPGEPASISCRSRQSIVHSSGNTYLEWYLQKPGQSPQLLIYKVSNRFSGVPDRFSGSGSGTDFTLKISRVEAEDVGVYYCFQGSHIPPTFGGGTKVEIK
notes: Humanized antibody; also called humanized 1F8 antibody h1F8-2-4
- Cell migration inhibitory activity (IC50, nM) [1]: 2.61 nM
- EC50 [2]: 4.42 nM

B4: h1F8-2-3 (antibody, V domains shown)
VH: QVQLVQSGAEVKKPGSSVKVSCKASGFTFTNYWMQWIRQAPGQGLEWIGAIYPGSGESRYTRKFKGRATLTADKSTSTAYMELSSLRSEDTAVYYCARWAGYSRNAAYWGQGTLVTVSS
VL: DIVMTQTPLSLPVTPGEPASISCRSRQSIVHSSGNTYLEWYLQKPGQSPQLLIYKVSNRFSGVPDRFSGSGSGTDFTLKISRVEAEDVGVYYCFQGSHIPPTFGGGTKVEIK
notes: Humanized antibody; also called humanized 1F8 antibody h1F8-2-3
- Cell migration inhibitory activity (IC50, nM) [1]: 1.4 nM
- EC50 [2]: 4.02 nM

B5: m1F8-2 antibody (antibody, V domains shown)
VH: QVQLQQSGAELARPGASVKLSCKASGFTFTNYWMQWIKQRPGQGLEWIGAIYPGSGESRYTRKFKGKATLTADKSSSTAYMQLNSLASEDSAVYYCARWAGYSRNAAYWGQGTLVTVSA
VL: DVLMTQTPLSLPVSLGDQASISCRSRQSIVHSSGNTYLEWYLQKPGQSPKLLIYKVSNRFSGVPDRFSGSGSGTDFTLKISRVEAEDLGVYYCFQGSHIPPTFGGGTKLEIK
notes: as for B2
- binding result [3]: no binding (tested: <10% of positive antibody at 200 nM)
- binding result [4]: no binding (tested: <10% of positive antibody at 200 nM)
- EC50 [5]: 2.67 nM
- relative measured value (flow cytometry reactivity, MFI) compared to positive antibody at 200 nM [6]: < 10%
- relative measured value (flow cytometry reactivity, MFI) compared to positive antibody at 200 nM [7]: < 10%
- relative measured value (flow cytometry reactivity, MFI) compared to positive antibody at 200 nM [9]: < 10%
- Cell migration inhibitory activity (IC50, nM) [10]: 2.96 nM
- relative measured value (flow cytometry reactivity, MFI) compared to positive antibody at 200 nM [11]: > 70%
- relative measured value (flow cytometry reactivity, MFI) compared to positive antibody at 200 nM [12]: > 70%
- relative measured value (flow cytometry reactivity, MFI) compared to positive antibody at 200 nM [13]: 40 to 70%
- relative measured value (flow cytometry reactivity, MFI) compared to positive antibody at 200 nM [17]: 10 to 40%
- relative measured value (flow cytometry reactivity, MFI) compared to positive antibody at 200 nM [14]: > 70%
- relative measured value (flow cytometry reactivity, MFI) compared to positive antibody at 200 nM [15]: > 70%
- relative measured value (flow cytometry reactivity, MFI) compared to positive antibody at 200 nM [16]: > 70%
- improvement in inhibitory activity against fractalkine-dependent cell migration compared to the original m1F8 antibody [18]: ≥ 15 fold
- fold improvement in binding activity compared to the original m1F8 antibody [19]: ≥ 70 fold

B6: h1F8-2-2 antibody (antibody, IgG1, V domains shown)
VH: QVQLVQSGAEVKKPGSSVKVSCKASGFTFTNYWMQWIRQAPGQGLEWIGAIYPGSGESRYTRKFKGKATITADKSTSTAYMELSSLRSEDTAVYYCARWAGYSRNAAYWGQGTLVTVSS
VL: DIVMTQTPLSLPVTPGEPASISCRSRQSIVHSSGNTYLEWYLQKPGQSPQLLIYKVSNRFSGVPDRFSGSGSGTDFTLKISRVEAEDVGVYYCFQGSHIPPTFGGGTKVEIK
notes: Humanized antibody; also called humanized 1F8 antibody (h1F8-2-2)
- Cell migration inhibitory activity (IC50, nM) [1]: 1.27 nM
- binding result [20]: no binding
- binding result [21]: no binding
- EC50 [2]: 3.1 nM
